The source of these data is patent WO2013139956A1 (dated 2013).

Ends that are not written are not given here. * marks the point of attachment. Biotin = O=C1N[C@H]2[C@H](CS[C@H]2CCCCC(=O)*)N1

The target of experiment [1] is T1, peptide NGGLCEEISQEVRG (SEQ ID NO:81), N-terminally biotinylated (human).
T1 construct: Human lactadherin 14-mer with part of the RGD domain at the C-terminus
T1 peptide: Biotin-NGGLCEEISQEVRG
The experiment in a line: ELISA, biotin-peptide on neutravidin plate, antibody 1 ug/ml.

The target of experiment [2] is T2, peptide EISQEVAAAVFPSY (SEQ ID NO:80), N-terminally biotinylated (human).
T2 peptide: Biotin-EISQEVAAAVFPSY
The description is as above.

Experiment [3] deals with T3, peptide EISQEVAGDVFPSY (SEQ ID NO:74), N-terminally biotinylated (human).
T3 peptide: Biotin-EISQEVAGDVFPSY
Described as above.

Experiment [4] deals with T4, peptide EISQEVRAAVFPSY (SEQ ID NO:78), N-terminally biotinylated (human).
T4 peptide: Biotin-EISQEVRAAVFPSY
The experiment is described as above.

In experiment [5] the target is T5, peptide EISQEVRADVFPSY (SEQ ID NO:75), N-terminally biotinylated (human).
T5 peptide: Biotin-EISQEVRADVFPSY
The description is as above.

Experiment [6] addresses T6, peptide EISQEVRGAVFPSY (SEQ ID NO:76), N-terminally biotinylated (human).
T6 peptide: Biotin-EISQEVRGAVFPSY
The description is as above.

The target of experiment [7] is T7, peptide VFPSYTCTCLKGYA (SEQ ID NO:86), N-terminally biotinylated (human, cysteine pairing not given here).
T7 peptide: Biotin-VFPSYTCTCLKGYA
The experiment is described as above.

Experiment [8] deals with T8, peptide EISQEVAADVFPSY (SEQ ID NO:77), N-terminally biotinylated (human).
T8 peptide: Biotin-EISQEVAADVFPSY
Described as above.

Experiment [9] concerns the target T9, peptide HNGGLCEEISQEVR (SEQ ID NO:82), N-terminally biotinylated (human).
T9 construct: Human lactadherin 14-mer with part of the RGD domain at the C-terminus
T9 peptide: Biotin-HNGGLCEEISQEVR
The description is as above.

Experiment [10] addresses T10, peptide DVFPSYTCTCLKGY (SEQ ID NO:85), N-terminally biotinylated (human, cysteine pairing not given here).
T10 construct: Human lactadherin 14-mer with part of the RGD domain at the N-terminus
T10 peptide: Biotin-DVFPSYTCTCLKGY
Described as above.

In experiment [11] the target is T11, peptide CHNGGLCEEISQEV (SEQ ID NO:83), N-terminally biotinylated (human, cysteine pairing not given here).
T11 peptide: Biotin-CHNGGLCEEISQEV
The description is as above.

Experiment [12] concerns the target T12, peptide GDVFPSYTCTCLKG (SEQ ID NO:84), N-terminally biotinylated (human, cysteine pairing not given here).
T12 construct: Human lactadherin 14-mer with part of the RGD domain at the N-terminus
T12 peptide: Biotin-GDVFPSYTCTCLKG
The description is as above.

The target of experiment [13] is T13, peptide EISQEVAGAVFPSY (SEQ ID NO:79), N-terminally biotinylated (human).
T13 peptide: Biotin-EISQEVAGAVFPSY
Described as above.

For experiment [14], the target named is T14, peptide … (SEQ ID NO:51), N-terminally biotinylated (human).
T14 sequence (peptide, N-terminally biotinylated): EISQEVRGDVFPSY
The experiment is described as above.

Another experiment deals with T15, human lactadherin (human, UniProt Q08431 24-387).
T15 sequence (looked up): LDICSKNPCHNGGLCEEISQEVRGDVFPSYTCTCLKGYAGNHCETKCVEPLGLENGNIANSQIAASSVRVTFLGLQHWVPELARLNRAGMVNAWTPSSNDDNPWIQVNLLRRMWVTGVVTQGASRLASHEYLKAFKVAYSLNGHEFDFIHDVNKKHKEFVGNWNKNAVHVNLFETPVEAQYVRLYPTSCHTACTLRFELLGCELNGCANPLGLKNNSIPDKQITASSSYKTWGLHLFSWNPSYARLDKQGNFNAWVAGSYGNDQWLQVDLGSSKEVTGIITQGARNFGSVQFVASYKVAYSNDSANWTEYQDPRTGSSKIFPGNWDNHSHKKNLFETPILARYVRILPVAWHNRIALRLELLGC
In words: cell-based or functional assay.

In experiment [15] the target is T16, peptide … (SEQ ID NO:77), N-terminally biotinylated (human).
T16 sequence (peptide, N-terminally biotinylated): EISQEVAADVFPSY
In words: ELISA, biotin-peptide on neutravidin plate, antibody 1 ug/ml.

Experiment [16] addresses T17, peptide … (SEQ ID NO:75), N-terminally biotinylated (human).
T17 sequence (peptide, N-terminally biotinylated): EISQEVRADVFPSY
The experiment is described as above.

Experiment [17] deals with T18, peptide … (SEQ ID NO:74), N-terminally biotinylated (human).
T18 sequence (peptide, N-terminally biotinylated): EISQEVAGDVFPSY
Described as above.

B1: anti-lactadherin antibody 346B6 (antibody, IgG1, V domains shown)
VH: EFQLQQSGPELVKPGASVRISCKASGYSFTDYNMNWVKQSDGKTLEWIGVINPDYGTTNNNQRFRGKATLTLDLSSSTAYMQLNSLTSEDSAVYYCARGGDYGAGYALDYWGQGTSVTVSS
VL: QIVLTQSPAIMSASPGEKVTMTCSASSSVSYMYWYQQKPGSSPRLLIYDTSNLASGVPVRFSGSGSGTSYSLTISRMEAEDAATYYCQQWSSYPPTFGAGTKLELKR
notes: VH identical to that of 311A7; also called hybridoma 346B6; LMBP 9490CB
B1: the “absorbance 450 nm minus 540 nm” value is 0.02 absorbance in [1]; 0.01 absorbance in experiment [2]; 0.02 absorbance in experiment [3]; 0.02 absorbance in [4]; 0.01 absorbance in experiment [5]; 0.02 absorbance in [6]. Besides, the “absorbance 450 nm minus 540 nm” value amounted to 0.03 absorbance in experiment [7]; 0.01 absorbance in experiment [8]; 0.02 absorbance in experiment [9]; 0.03 absorbance in [10]; 0.02 absorbance in [11]; 0.02 absorbance in [12]. Also, the entries for the “absorbance 450 nm minus 540 nm” value in experiment [13] and in [14] were 0.07 absorbance and 1 absorbance, respectively. In the experiment with human lactadherin, the “inhibition of SKOV-3 cell adhesion to coated human lactadherin, antibody at 5 ug/mL” value (shortened to “inhibition of SKOV-3 cell adhesion”) was determined as 25%.

B2: chimeric 311A7 antibody (antibody, V domains shown)
VH: B1 VH
VL: QIVLTQSPAIMSASPGEKVTITCSASSSVSYMYWFQQKPGTSPKLWIYSTSNLASGVPARFSGSGSGTSYSLTISRMEAEDAATYYCQQRSSYPRTFGGGTKLEIKR
Regarding B2, the “IC50 (nM), inhibition of cell adhesion to human lactadherin” value in the experiment with human lactadherin turned out to be 7.36 nM.

B3: huMc3 antibody (antibody, V domains shown)
VH: EVQLVQSGAEVKKPGASVKVSCKASGYSFTGYTMHWVKQSPGMNLEWIGLINPYNGGTVYNQKFQDKATLTVDKSTSTAYMELSSLRSEDTAVYFCARRWRYTMDYWGQGTLVTVSS
VL: DIVMTQSPDSLAVSLGERATITCKASQDVSIGVAWYQQKPGQSPKLLIYSASSRYTGVPDRFSGSGSGTDFTLTISSLQAEDVAVYYCQQHYTSPFTFGSGTKVEIK
Regarding B3, the “absorbance 450 nm minus 540 nm” value is 0.09 absorbance in [1]; 0.04 absorbance in experiment [2]; 0.04 absorbance in [3]; 0.06 absorbance in experiment [4]; 0.03 absorbance in [5]; 0.06 absorbance in [6]. Further, the “absorbance 450 nm minus 540 nm” value amounted to 0.07 absorbance in [7]; 0.05 absorbance in experiment [8]; 0.08 absorbance in [9]; 0.09 absorbance in experiment [10]; 0.09 absorbance in experiment [11]; 0.08 absorbance in experiment [12]. In addition, the “absorbance 450 nm minus 540 nm” value in [13] was 0.04 absorbance. Moreover, the “IC50 (nM), inhibition of cell adhesion to human lactadherin” value with human lactadherin was 6.48 nM. In addition, the “inhibition of SKOV-3 cell adhesion” value in the experiment with human lactadherin is over 70%.

B4: anti-lactadherin antibody 399A12 (antibody, V domains shown)
VH: QVTLKESGPGVLQSSQTLSLTCSFSGFSLSTSGLGVIWIRQPSGAGLEWLAQIYWDDNKRYNPSLKSRLTISKDTSRNQVFLKITPVDTADTATYYCARRTFYDYDEGFYAMDYWGQGTSVTVSS
VL: DIQMTQTTSSLSASLGDRVTITCRASQDISNYLNWYQQKPDGTIKLLIYYASRLHSGVPSRFSGSGSGTDYSLTISNLEQEDIATYFCQQGNTLPLTFGAGTKLELKR
notes: Murine monoclonal, kappa light chain; Variable regions identical to those of 416H9; also called hybridoma 399A12; LMBP 9491CB
Turning to B4, the “absorbance 450 nm minus 540 nm” value in experiment [1] was 0.03 absorbance; in experiment [2], 0.02 absorbance; in experiment [4] it was 0.02 absorbance; in [6] it was 0.03 absorbance; in experiment [7], 0.03 absorbance; in experiment [9], 0.02 absorbance. In addition, the “absorbance 450 nm minus 540 nm” value in experiment [10] was 0.04 absorbance; in experiment [11], 0.02 absorbance; in experiment [12], 0.03 absorbance; in experiment [13], 0.03 absorbance; in experiment [15], 0.2 absorbance; in experiment [16], 0.69 absorbance. For the same molecule, the absorbance 450 nm minus 540 nm turned out to be 0.24 absorbance in [17] and 1.62 absorbance in experiment [14]. The “decrease of SKOV-3 cell migration towards lactadherin, antibody at 5 ug/mL” value in the experiment with human lactadherin was over 80%. In the experiment with human lactadherin, the “inhibition of SKOV-3 cell adhesion” value was over 70%.

B5: anti-lactadherin antibody 416H9 (antibody, IgG1, V domains shown)
VH: B4 VH
VL: B4 VL
notes: also called hybridoma 416H9; LMBP 9492CB
Regarding B5, the “absorbance 450 nm minus 540 nm” value turned out to be 0.02 absorbance in [1]; 0.02 absorbance in experiment [2]; 0.02 absorbance in experiment [4]; 0.02 absorbance in [6]; 0.03 absorbance in [7]; 0.03 absorbance in [9]. Moreover, the “absorbance 450 nm minus 540 nm” value in experiment [10] was determined as 0.03 absorbance; in [11] it was 0.03 absorbance; in experiment [12], 0.03 absorbance; in [13] it was 0.05 absorbance; in experiment [15], 0.19 absorbance; in experiment [16] it was 0.7 absorbance. Besides, the absorbance 450 nm minus 540 nm came out at 0.25 absorbance in experiment [17] and 1.76 absorbance in experiment [14]. Moreover, the “decrease of SKOV-3 cell migration towards lactadherin, antibody at 5 ug/mL” value with human lactadherin is over 80%. For the same molecule, the “inhibition of SKOV-3 cell adhesion” value with human lactadherin is over 70%.

B6: anti-lactadherin antibody 215A9 (antibody, IgG1, V domains shown)
VH: QVSLKESGPGILQSSQTLSLTCSFSGFSLSTSGMGVSWIRQPSGKGLEWLAHIYWNDDKRYNPSLKSRLTISKDTSRDQVFLKITSVDTADTATYFCARRPRFYRDYDEGIDFWGQGTTLTVSS
VL: QAVVTQESALTTSPGETVTLTCRSSTGAVTTNNYANWVQEKPDHLFTGLIGGTNNRTPGVPARFSGSLIGDKAALTITGAQTEDEAIYFCALWYSNLWVFGGGTKLTVLG
notes: also called 2154A9; hybridoma 215A9
On to B6, for which the “absorbance 450 nm minus 540 nm” value was determined as 0.03 absorbance in experiment [1]; 0.02 absorbance in [2]; 0.02 absorbance in experiment [4]; 0.1 absorbance in experiment [6]; 0.05 absorbance in experiment [7]; 0.03 absorbance in [9]. Moreover, the “absorbance 450 nm minus 540 nm” value in [10] turned out to be 0.04 absorbance; in experiment [11], 0.03 absorbance; in experiment [12], 0.04 absorbance; in [13], 0.03 absorbance; in experiment [15] it was 0.23 absorbance; in [16], 0.74 absorbance. Also, the values for the absorbance 450 nm minus 540 nm in experiment [17] and in experiment [14] were 0.52 absorbance and 1.1 absorbance, respectively. For the same molecule, the “inhibition of SKOV-3 cell adhesion” value with human lactadherin was over 70%.
